Test: yeast display, Sf9 membrane polyspecificity reagent, FACS + sequencing; frameworks hold sequencing errors
How it was run: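 Galactose-induced (36–48 hours) yeast carrying a synthetic nanobody display library were exposed to 10% biotinylated, detergent-solubilized Sf9 membrane reagent at 4 °C for 1 hour. FACS followed streptavidin microbead enrichment, using low and high (top ~1%) gates for expression (anti-HA) and reagent binding (streptavidin). Colony PCR, MiSeq 2 × 250 sequencing and CDR-length filtering followed. Labels for polyreactivity reflect the gate of origin.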

Row | Sequence | polyreactivity (PSR sort gate)
1 | QVQLVESGGGLVQAGGSLRLSCAASGRTFYIYAMGWYRQAPGKERELVAAITYGGGRTFYADSVKGRFTISRDNAKNTVYLQMNSLKPEDTAVYYCAATVRGKRSTYDYWGQGTQVTVSS | high polyreactivity
2 | QVQLVESGGGLVQAGGSLRLSCAASGRTFYIYAMGWYRQAPGKERELVAAITYGGGRTFYADSVKGRFTISRDNAKNTVYLQMNSLKPEDTAVYYCARGDFYYHSRYTYYTSDYWGQGTQVTVSS | high polyreactivity
3 | QVQLVESGGGLVQAGGSLRLSCAASGRTFYIYAMGWYRQAPGTERELVAAITWSGGTTYYADSVKGRFTISRDNAKNTVYLQMNSLKPEDTAVYYCAADRYGFYLESYYWGQGTQVTVSS | low polyreactivity
4 | QVQLVESGGGLVQAGGSLRLSCAASGRTFYKNAMGWYRQAPWKERELVAAISYGGGSTYYADSVKGRFTISRDNAKNTVYLQMNSLKPEDTAVYYCATQLPFRKPWHDYWGQGTQVTVSS | high polyreactivity
5 | QVQLVESGGGLVQAGGSLRLSCAASGRTFYKNTMGWYRQAPGKERELVATITRRGGTTYYADSVKGRFTISRDNAKNTVYLQMNSLKPEDTAVYYCAKDASTEKYDYWGQGTQVTVSS | low polyreactivity
6 | QVQLVESGGGLVQAGGSLRLSCAASGRTFYKYMGWYRQAPGKERELVAAIRWSGGSTYYADSVKGRFTISRDNAKNTVYLQMNSLKPEDTAVYYCAAGKQAPAVNYGYYYWGQGTQVTVSS | low polyreactivity
7 | QVQLVESGGGLVQAGGSLRLSCAASGRTFYLNAMGWYRPAPGKDRELVATITSRAGSTRYADSVKGRFTISRDNAKNTVYLQMNSLKPEDTAVYYCAVRSTDPYRRGPSYYYWGQGTQVTVSS | high polyreactivity
8 | QVQLVESGGGLVQAGGSLRLSCAASGRTFYLNAMGWYRQAPGKVRELVAAIRFSGGSTYYADSVKGRFTISRDNAKNTVYLQMNSLKPEDTAVYYCNAGPYHSLYPTVSEYGYWGQGTQVTVSS | low polyreactivity
9 | QVQLVESGGGLVQAGGSLRLSCAASGRTFYLYTMGWYRQAPGKERELVAAITGGGRTYYADSVKGRFTISRDNAKNTVYLQMNSLKPEDTAVYYCNADYAYYSYDYWGQGTQVTVSS | low polyreactivity
10 | QVQLVESGGGLVQAGGSLRLSCAASGRTFYLYTMGWYRQAPGKERELVAGISWSGGSTYADSVKGRFTISRDNAKNTVYLQMNSLKPEDTAVYYCAAEVYYGYDYWGQGTQVTVSS | low polyreactivity
11 | QVQLVESGGGLVQAGGSLRLSCAASGRTFYNYAMGWYRQAPGKERELVAAIDWGSDSTYYADSVKGRFTISRDNAKNTVYLQMNSLKPEDTAVYYCAAYLVSVNSRTYDYWGQGTQVTVSS | low polyreactivity
12 | QVQLVESGGGLVQAGGSLRLSCAASGRTFYNYAMGWYRQAPGKERELVAAITRGGSTYYADSVKGRFTISRDNAKNTVYLQMNSLKPEDTAVYYCNAYYYIPFEGRGYSKLDYWGQGTQVTVSS | high polyreactivity
13 | QVQLVESGGGLVQAGGSLRLSCAASGRTFYPNAMGWYRQAPGKERELVAGIRSSGDSTYYADSVKGRFTISRDNAKNTVYLQMNSLKPEDTAVYYCNRDLTPSYDYWGQGTQVTVSS | low polyreactivity
14 | QVQLVESGGGLVQAGGSLRLSCAASGRTFYPYAMGWYRQAPGKEREFVAAITWTGDSTYYADSVKGRFTISRDNAKNTVYLQMNSLKPEDTAVYYCAADLSSSPYYYGYDYWGQGTQVTVSS | low polyreactivity
15 | QVQLVESGGGLVQAGGSLRLSCAASGRTFYPYAMGWYRQAPGKERELVAAIRRSDGSTYYADSVKGRFTISRDNAKNTVYLQMNSLKPEDTAVYYFAAGQGSRNQYYYWGHGTQVTVSS | high polyreactivity
16 | QVQLVESGGGLVQAGGSLRLSCAASGRTFYPYAMGWYRQAPGKERELVAAISSSGGSTYYADSVKGRFTISRDNAKNTVYLQRNSLKPEYTPVYYCASYLRPGGNYYWGQGTQVTVSS | high polyreactivity
17 | QVQLVESGGGLVQAGGSLRLSCAASGRTFYPYAMGWYRQATGKERELVAAIDYSSATTYYADSVKGRFTISRDNAKNTVYLQMNSLKPEDTAVYYCARVGIGVGWSKLNYWGQGTQVTVSS | low polyreactivity
